Measured values from patent publication US20140274782A1, “AFFINITY REAGENTS AND METHODS FOR DETECTION, PURIFICATION, AND PROTEOMIC ANALYSIS OF METHYLATED PROTEINS” (The Board of Trustees of the Leland Stanford Junior …, priority 2013, published 2014).

Tests used:
[1] = system: 3×MBT domain of L3MBTL1; assay: Triple SILAC pull-down, 3xMBT/3xMBTD355N ratio (cytoplasmic, nuclear and chromatin fractions of 293T cells); type: binding, human; conditions: SILAC ratio, pull-down 3xMBT vs 3xMBTD355N; for 3xMBT/D355N UNC Heavy: experiment with UNC0638 in heavy SILAC media; for 3xMBT/D355N UNC Light: experiment with UNC0638 in light SILAC media;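 for all read-outs here: proteins quantified with MaxQuant, requiring at least two unique peptides and quantification in both label directions, normalized to the mean of proteins from a digested loading control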
[2] = target: T1, G9a and GLP (Homo sapiens, UniProt Q96KQ7+Q9H9B1); assay: Triple SILAC pull-down after UNC0638 treatment of 293T cells, DMSO/UNC0638 ratio of protein captured by 3×MBT; type: cell-based; design: cells were treated for 24 hours with UNC0638 at 2.5 μM or DMSO vehicle control; endogenous in cells; host or cells: HEK 293T; conditions: for Relative to UNC0638 UNC Heavy / Relative to UNC0638 UNC Light: SILAC ratio DMSO/UNC0638 of protein pulled down with 3xMBT; for Relative to UNC0638 UNC Heavy: UNC0638 in heavy SILAC media; for Relative to UNC0638 UNC Light: UNC0638 in light SILAC media; for Relative to UNC0638 Average: average of UNC Light and UNC Heavy experiments;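 for all read-outs here: mass spectrometry (Q-Exactive) SILAC quantitation, DMSO/UNC0638 ratio computed after subtracting 3×MBTD355N mutant pull-down background, only proteins with at least twofold 3×MBT over mutant signal considered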
T1 sequence (Q96KQ7 2-1210 limits assumed): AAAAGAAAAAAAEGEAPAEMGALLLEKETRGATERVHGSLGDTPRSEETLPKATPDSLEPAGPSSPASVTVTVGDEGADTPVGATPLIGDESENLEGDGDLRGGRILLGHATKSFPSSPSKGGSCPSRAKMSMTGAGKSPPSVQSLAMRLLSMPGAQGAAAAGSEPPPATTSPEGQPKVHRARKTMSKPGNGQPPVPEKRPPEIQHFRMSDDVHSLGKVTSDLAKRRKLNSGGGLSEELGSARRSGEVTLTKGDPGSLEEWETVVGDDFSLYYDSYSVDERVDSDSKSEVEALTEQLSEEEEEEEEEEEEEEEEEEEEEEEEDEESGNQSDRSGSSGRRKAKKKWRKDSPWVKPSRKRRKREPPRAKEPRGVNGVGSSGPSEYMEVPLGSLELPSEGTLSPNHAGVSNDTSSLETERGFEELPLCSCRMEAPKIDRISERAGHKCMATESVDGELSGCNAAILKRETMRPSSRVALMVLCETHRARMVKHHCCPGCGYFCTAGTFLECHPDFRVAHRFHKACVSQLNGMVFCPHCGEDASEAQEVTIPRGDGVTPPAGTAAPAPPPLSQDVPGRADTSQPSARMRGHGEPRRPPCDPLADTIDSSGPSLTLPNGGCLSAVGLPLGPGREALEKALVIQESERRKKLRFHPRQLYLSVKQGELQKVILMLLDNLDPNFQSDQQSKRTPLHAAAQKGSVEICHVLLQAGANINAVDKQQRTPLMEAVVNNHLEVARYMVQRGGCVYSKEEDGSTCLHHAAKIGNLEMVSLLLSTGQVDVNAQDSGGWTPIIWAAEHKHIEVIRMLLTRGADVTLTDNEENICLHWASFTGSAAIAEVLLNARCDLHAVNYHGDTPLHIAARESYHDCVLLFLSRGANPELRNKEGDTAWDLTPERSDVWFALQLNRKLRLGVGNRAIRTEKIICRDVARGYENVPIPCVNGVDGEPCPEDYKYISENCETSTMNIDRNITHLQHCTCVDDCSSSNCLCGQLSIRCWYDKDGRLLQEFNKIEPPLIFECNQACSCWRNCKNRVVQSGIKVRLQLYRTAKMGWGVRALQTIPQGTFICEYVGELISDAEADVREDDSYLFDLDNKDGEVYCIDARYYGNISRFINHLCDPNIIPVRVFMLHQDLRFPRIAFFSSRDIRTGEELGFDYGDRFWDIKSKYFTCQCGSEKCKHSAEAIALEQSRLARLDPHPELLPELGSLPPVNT
T1 sequence (Q9H9B1 2-1298 limits assumed): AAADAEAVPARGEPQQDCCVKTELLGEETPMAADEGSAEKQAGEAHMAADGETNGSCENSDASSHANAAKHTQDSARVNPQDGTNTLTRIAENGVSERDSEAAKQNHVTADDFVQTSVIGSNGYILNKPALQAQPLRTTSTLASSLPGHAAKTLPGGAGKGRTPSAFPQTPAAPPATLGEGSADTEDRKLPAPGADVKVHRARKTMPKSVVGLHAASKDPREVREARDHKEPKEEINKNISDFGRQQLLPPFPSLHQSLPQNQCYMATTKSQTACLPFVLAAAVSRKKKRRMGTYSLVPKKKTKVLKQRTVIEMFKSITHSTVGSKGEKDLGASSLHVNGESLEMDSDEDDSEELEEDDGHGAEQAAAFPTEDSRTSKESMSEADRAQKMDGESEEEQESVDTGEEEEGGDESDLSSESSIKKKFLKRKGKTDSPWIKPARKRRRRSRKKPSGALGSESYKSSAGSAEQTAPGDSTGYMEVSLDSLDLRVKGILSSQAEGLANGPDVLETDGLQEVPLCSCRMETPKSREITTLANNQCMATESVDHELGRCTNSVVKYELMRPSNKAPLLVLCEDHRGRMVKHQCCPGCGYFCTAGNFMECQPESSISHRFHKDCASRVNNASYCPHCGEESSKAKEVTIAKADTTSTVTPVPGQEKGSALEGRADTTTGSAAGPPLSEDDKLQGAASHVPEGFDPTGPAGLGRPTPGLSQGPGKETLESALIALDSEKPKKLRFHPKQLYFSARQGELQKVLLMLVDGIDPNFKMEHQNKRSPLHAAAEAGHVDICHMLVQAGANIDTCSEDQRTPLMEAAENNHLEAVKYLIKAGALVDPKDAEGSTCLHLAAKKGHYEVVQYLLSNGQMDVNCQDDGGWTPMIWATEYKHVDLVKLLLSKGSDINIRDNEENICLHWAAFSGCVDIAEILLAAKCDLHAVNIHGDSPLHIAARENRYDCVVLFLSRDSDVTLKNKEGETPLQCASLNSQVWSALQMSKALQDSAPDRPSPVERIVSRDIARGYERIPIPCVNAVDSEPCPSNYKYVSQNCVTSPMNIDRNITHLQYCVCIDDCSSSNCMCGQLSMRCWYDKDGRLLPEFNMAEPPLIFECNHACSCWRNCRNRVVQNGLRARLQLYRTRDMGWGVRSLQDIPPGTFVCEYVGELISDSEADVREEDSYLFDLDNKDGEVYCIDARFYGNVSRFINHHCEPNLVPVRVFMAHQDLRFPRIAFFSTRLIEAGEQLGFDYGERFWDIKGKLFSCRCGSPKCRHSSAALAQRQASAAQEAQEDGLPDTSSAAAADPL

B1: CRKL (protein, UniProt P46109 1-303, looked up)
Crk-like protein: MSSARFDSSDRSAWYMGPVSRQEAQTRLQGQRHGMFLVRDSSTCPGDYVLSVSENSRVSHYIINSLPNRRFKIGDQEFDHLPALLEFYKIHYLDTTTLIEPAPRYPSPPMGSVSAPNLPTAEDNLEYVRTLYDFPGNDAEDLPFKKGEILVIIEKPEEQWWSARNKDGRVGMIPVPYVEKLVRSSPHGKHGNRNSNSYGIPEPAHAYAQPQTTTPLPAVSGSPGAAITPLPSTQNGPVFAKAIQKRVPCAYDKTALALEVGDIVKVTRMNINGQWEGEVNGRKGLFPFTHVKIFDPQNPDENE
For B1, the “3xMBT/D355N UNC Heavy” value [1] was 1.16 log base 2, the “3xMBT/D355N UNC Light” value [1] was 1.59 log base 2 and the “Relative to UNC0638 UNC Heavy” value [2] was 0.37 log base 2. The “Relative to UNC0638 UNC Light” value [2] was 0.03 log base 2 and the “Relative to UNC0638 Average” value [2] was 0.20 log base 2.

B2: HNRPDL (protein, UniProt O14979 1-420, looked up)
Heterogeneous nuclear …: MEVPPRLSHVPPPLFPSAPATLASRSLSHWRPRPPRQLAPLLPSLAPSSARQGARRAQRHVTAQQPSRLAGGAAIKGGRRRRPDLFRRHFKSSSIQRSAAAAAATRTARQHPPADSSVTMEDMNEYSNIEEFAEGSKINASKNQQDDGKMFIGGLSWDTSKKDLTEYLSRFGEVVDCTIKTDPVTGRSRGFGFVLFKDAASVDKVLELKEHKLDGKLIDPKRAKALKGKEPPKKVFVGGLSPDTSEEQIKEYFGAFGEIENIELPMDTKTNERRGFCFITYTDEEPVKKLLESRYHQIGSGKCEIKVAQPKEVYRQQQQQQKGGRGAAAGGRGGTRGRGRGQGQNWNQGFNNYYDQGYGNYNSAYGGDQNYSGYGGYDYTGYNYGNYGYGQGYADYSGQQSTYGKASRGGGNHQNNYQPY
For B2, the “3xMBT/D355N UNC Heavy” value [1] was 2.81 log base 2, the “3xMBT/D355N UNC Light” value [1] was 3.02 log base 2 and the “Relative to UNC0638 UNC Heavy” value [2] was 0.16 log base 2. The “Relative to UNC0638 UNC Light” value [2] was 0.24 log base 2 and the “Relative to UNC0638 Average” value [2] was 0.20 log base 2.

B3: DDX3X (protein, UniProt O00571 2-662, looked up)
ATP-dependent RNA helicase …: SHVAVENALGLDQQFAGLDLNSSDNQSGGSTASKGRYIPPHLRNREATKGFYDKDSSGWSSSKDKDAYSSFGSRSDSRGKSSFFSDRGSGSRGRFDDRGRSDYDGIGSRGDRSGFGKFERGGNSRWCDKSDEDDWSKPLPPSERLEQELFSGGNTGINFEKYDDIPVEATGNNCPPHIESFSDVEMGEIIMGNIELTRYTRPTPVQKHAIPIIKEKRDLMACAQTGSGKTAAFLLPILSQIYSDGPGEALRAMKENGRYGRRKQYPISLVLAPTRELAVQIYEEARKFSYRSRVRPCVVYGGADIGQQIRDLERGCHLLVATPGRLVDMMERGKIGLDFCKYLVLDEADRMLDMGFEPQIRRIVEQDTMPPKGVRHTMMFSATFPKEIQMLARDFLDEYIFLAVGRVGSTSENITQKVVWVEESDKRSFLLDLLNATGKDSLTLVFVETKKGADSLEDFLYHEGYACTSIHGDRSQRDREEALHQFRSGKSPILVATAVAARGLDISNVKHVINFDLPSDIEEYVHRIGRTGRVGNLGLATSFFNERNINITKDLLDLLVEAKQEVPSWLENMAYEHHYKGSSRGRSKSSRFSGGFGARDYRQSSGASSSSFSSSRASSSRSGGGGHGSSRGFGGGGYGGFYNSDGYGGNYNSQGVDWWGN
For B3, the “3xMBT/D355N UNC Heavy” value [1] was 2.64 log base 2, the “3xMBT/D355N UNC Light” value [1] was 2.58 log base 2 and the “Relative to UNC0638 UNC Heavy” value [2] was 0.25 log base 2. For the same molecule, the “Relative to UNC0638 UNC Light” value [2] was 0.14 log base 2 and the “Relative to UNC0638 Average” value [2] was 0.20 log base 2.

B4: DHX15 (protein, UniProt O43143 1-795, looked up)
ATP-dependent RNA helicase …: MSKRHRLDLGEDYPSGKKRAGTDGKDRDRDRDREDRSKDRDRERDRGDREREREKEKEKELRASTNAMLISAGLPPLKASHSAHSTHSAHSTHSTHSAHSTHAGHAGHTSLPQCINPFTNLPHTPRYYDILKKRLQLPVWEYKDRFTDILVRHQSFVLVGETGSGKTTQIPQWCVEYMRSLPGPKRGVACTQPRRVAAMSVAQRVADEMDVMLGQEVGYSIRFEDCSSAKTILKYMTDGMLLREAMNDPLLERYGVIILDEAHERTLATDILMGVLKEVVRQRSDLKVIVMSATLDAGKFQIYFDNCPLLTIPGRTHPVEIFYTPEPERDYLEAAIRTVIQIHMCEEEEGDLLLFLTGQEEIDEACKRIKREVDDLGPEVGDIKIIPLYSTLPPQQQQRIFEPPPPKKQNGAIGRKVVVSTNIAETSLTIDGVVFVIDPGFAKQKVYNPRIRVESLLVTAISKASAQQRAGRAGRTRPGKCFRLYTEKAYKTEMQDNTYPEILRSNLGSVVLQLKKLGIDDLVHFDFMDPPAPETLMRALELLNYLAALNDDGDLTELGSMMAEFPLDPQLAKMVIASCDYNCSNEVLSITAMLSVPQCFVRPTEAKKAADEAKMRFAHIDGDHLTLLNVYHAFKQNHESVQWCYDNFINYRSLMSADNVRQQLSRIMDRFNLPRRSTDFTSRDYYINIRKALVTGYFMQVAHLERTGHYLTVKDNQVVQLHPSTVLDHKPEWVLYNEFVLTTKNYIRTCTDIKPEWLVKIAPQYYDMSNFPQCEAKRQLDRIIAKLQSKEYSQY
With B4 the “3xMBT/D355N UNC Heavy” value [1] was 2.98 log base 2, the “3xMBT/D355N UNC Light” value [1] was 2.54 log base 2 and the “Relative to UNC0638 UNC Heavy” value [2] was 0.13 log base 2. For the same molecule, the “Relative to UNC0638 UNC Light” value [2] was 0.27 log base 2 and the “Relative to UNC0638 Average” value [2] was 0.20 log base 2.

B5: DDX5 (protein, UniProt P17844 1-614, looked up)
Probable ATP-dependent RNA …: MSGYSSDRDRGRDRGFGAPRFGGSRAGPLSGKKFGNPGEKLVKKKWNLDELPKFEKNFYQEHPDLARRTAQEVETYRRSKEITVRGHNCPKPVLNFYEANFPANVMDVIARQNFTEPTAIQAQGWPVALSGLDMVGVAQTGSGKTLSYLLPAIVHINHQPFLERGDGPICLVLAPTRELAQQVQQVAAEYCRACRLKSTCIYGGAPKGPQIRDLERGVEICIATPGRLIDFLECGKTNLRRTTYLVLDEADRMLDMGFEPQIRKIVDQIRPDRQTLMWSATWPKEVRQLAEDFLKDYIHINIGALELSANHNILQIVDVCHDVEKDEKLIRLMEEIMSEKENKTIVFVETKRRCDELTRKMRRDGWPAMGIHGDKSQQERDWVLNEFKHGKAPILIATDVASRGLDVEDVKFVINYDYPNSSEDYIHRIGRTARSTKTGTAYTFFTPNNIKQVSDLISVLREANQAINPKLLQLVEDRGSGRSRGRGGMKDDRRDRYSAGKRGGFNTFRDRENYDRGYSSLLKRDFGAKTQNGVYSAANYTNGSFGSNFVSAGIQTSFRTGNPTGTYQNGYDSTQQYGSNVPNMHNGMNQQAYAYPATAAAPMIGYPMPTGYSQ
In the case of B5, the “3xMBT/D355N UNC Heavy” value [1] is reported as 3.00 log base 2, the “3xMBT/D355N UNC Light” value [1] is reported as 2.92 log base 2 and the “Relative to UNC0638 UNC Heavy” value [2] is reported as 0.31 log base 2. For the same molecule, the “Relative to UNC0638 UNC Light” value [2] was 0.10 log base 2 and the “Relative to UNC0638 Average” value [2] was 0.20 log base 2.
